Assay results: the supplement of paper PMC11246515
± gives the standard deviation of the averaged measurements.

Experiment: total protein half-life in vivo (active degradation + dilution); higher = more stable protein
[1] = E. coli NCM3722 delta-clpP delta-lon delta-hslV, growth: N-lim chemostat, doubling time 6 h
[2] = E. coli NCM3722 delta-smpB, growth: N-lim chemostat, doubling time 6 h
[3] = wild type E. coli NCM3722, growth: C-lim chemostat, doubling time 6 h
[4] = wild type E. coli NCM3722, growth: C-lim chemostat, doubling time 12 h
[5] = wild type E. coli NCM3722, growth: P-lim chemostat, doubling time 6 h
[6] = wild type E. coli NCM3722, growth: P-lim chemostat, doubling time 12 h
[7] = E. coli NCM3722 delta-clpP, growth: N-lim chemostat, doubling time 6 h
[8] = E. coli NCM3722 delta-hslV, growth: N-lim chemostat, doubling time 6 h
[9] = E. coli NCM3722 delta-lon, growth: N-lim chemostat, doubling time 6 h
[10] = wild type E. coli NCM3722, growth: C-lim chemostat, doubling time 3 h
[11] = wild type E. coli NCM3722, growth: N-lim chemostat, doubling time 6 h
[12] = wild type E. coli NCM3722, growth: N-lim chemostat, doubling time 12 h

Row | Sequence | total protein half-life in vivo [1] | total protein half-life in vivo [2] | total protein half-life in vivo [3] | total protein half-life in vivo [4] | total protein half-life in vivo [5] | total protein half-life in vivo [6] | total protein half-life in vivo [7] | total protein half-life in vivo [8] | total protein half-life in vivo [9] | total protein half-life in vivo [10] | total protein half-life in vivo [11] | total protein half-life in vivo [12]
1 | MNLLIDNWIPVRPRNGGKVQIINLQSLYCSRDQWRLSLPRDDMELAALALLVCIGQIIAPAKDDVEFRHRIMNPLTEDEFQQLIAPWIDMFYLNHAEHPFMQTKGVKANDVTPMEKLLAGVSGATNCAFVNQPGQGEALCGGCTAIALFNQANQAPGFGGGFKSGLRGGTPVTTFVRGIDLRSTVLLNVLTLPRLQKQFPNESHTENQPTWIKPIKSNESIPASSIGFVRGLFWQPAHIELCDPIGIGKCSCCGQESNLRYTGFLKEKFTFTVNGLWPHPHSPCLVTVKKGEVEEKFLAFTTSAPSWTQISRVVVDKIIQNENGNRVAAVVNQFRNIAPQSPLELIMGGYRNNQASILERRHDVLMFNQGWQQYGNVINEIVTVGLGYKTALRKALYTFAEGFKNKDFKGAGVSVHETAERHFYRQSELLIPDVLANVNFSQADEVIADLRDKLHQLCEMLFNQSVAPYAHHPKLISTLALARATLYKHLRELKPQGGPSNG | 5.99 ± 0.51 h | 2.728 ± 0.0011 h | 3.27 h | 6.24 h | 2.97 h | 6.78 ± 1.8 h | – | – | – | – | – | –
2 | MEQRRLASTEWVDIVNEENEVIAQASREQMRAQCLRHRATYIVVHDGMGKILVQRRTETKDFLPGMLDATAGGVVQADEQLLESARREAEEELGIAGVPFAEHGQFYFEDKNCRVWGALFSCVSHGPFALQEDEVSEVCWLTPEEITARCDEFTPDSLKALALWMKRNAKNEAVETETAE | 5.19 ± 0.16 h | 2.49 ± 0.11 h | 4.53 ± 1.2 h | 7.26 ± 0.99 h | 3.4 ± 0.06 h | 7.2 ± 0.65 h | 4.78 ± 0.093 h | 2.3 ± 0.074 h | 2.72 ± 0.38 h | 1.93 ± 0.17 h | 2.85 h | 3.09 ± 0.045 h
3 | MSNTDASGEKRVTGTSERREQIIQRLRQQGSVQVNDLSALYGVSTVTIRNDLAFLEKQGIAVRAYGGALICDSTTPSVEPSVEDKSALNTAMKRSVAKAAVELIQPGHRVILDSGTTTFEIARLMRKHTDVIAMTNGMNVANALLEAEGVELLMTGGHLRRQSQSFYGDQAEQSLQNYHFDMLFLGVDAIDLERGVSTHNEDEARLNRRMCEVAERIIVVTDSSKFNRSSLHKIIDTQRIDMIIVDEGIPADSLEGLRKAGVEVILVGE [P0ACK2] | – | 5.04 ± 0.56 h | 5.31 ± 0.35 h | 9.94 ± 0.52 h | 5.05 ± 0.16 h | 9.52 ± 1.1 h | 6.24 ± 1 h | 4.83 ± 0.21 h | 5.24 ± 0.27 h | 3.02 ± 0.15 h | 4.89 ± 0.46 h | 9.31 ± 0.91 h
4 | MSNRKYFGTDGIRGRVGDAPITPDFVLKLGWAAGKVLARHGSRKIIIGKDTRISGYMLESALEAGLAAAGLSALFTGPMPTPAVAYLTRTFRAEAGIVISASHNPFYDNGIKFFSIDGTKLPDAVEEAIEAEMEKEISCVDSAELGKASRIVDAAGRYIEFCKATFPNELSLSELKIVVDCANGATYHIAPNVLRELGANVIAIGCEPNGVNINAEVGATDVRALQARVLAEKADLGIAFDGDGDRVIMVDHEGNKVDGDQIMYIIAREGLRQGQLRGGAVGTLMSNMGLELALKQLGIPFARAKVGDRYVLEKMQEKGWRIGAENSGHVILLDKTTTGDGIVAGLQVLAAMARNHMSLHDLCSGMKMFPQILVNVRYTAGSGDPLEHESVKAVTAEVEAALGNRGRVLLRKSGTEPLIRVMVEGEDEAQVTEFAHRIADAVKAV | 6.02 ± 0.36 h | 5.71 ± 0.24 h | 6.27 ± 0.035 h | 12.62 ± 0.093 h | 6.24 ± 0.16 h | 13.8 ± 0.27 h | 6.03 ± 0.15 h | 5.92 ± 0.21 h | 6.65 ± 0.13 h | 3.24 ± 0.19 h | 6.08 ± 0.13 h | 11.8 ± 0.54 h
5 | MKLISNDLRDGDKLPHRHVFNGMGYDGDNISPHLAWDDVPAGTKSFVVTCYDPDAPTGSGWWHWVVVNLPADTRVLPQGFGSGLVAMPDGVLQTRTDFGKTGYDGAAPPKGETHRYIFTVHALDIERIDVDEGASGAMVGFNVHFHSLASASITAMFS | – | 5.96 ± 0.2 h | 6.07 ± 0.44 h | 13.4 ± 2 h | 6.04 ± 0.39 h | 10.9 ± 2.7 h | 5.59 ± 0.26 h | > 8 h | 5.79 ± 0.095 h | – | 5.42 ± 0.21 h | 11.4 ± 1.1 h
6 | MKLSRISAINWNKISDDKDLEVWNRLTSNFWLPEKVPLSNDIPAWQTLTVVEQQLTMRVFTGLTLLDTLQNVIGAPSLMPDALTPHEEAVLSNISFMEAVHARSYSSIFSTLCQTKDVDAAYAWSEENAPLQRKAQIIQQHYRGDDPLKKKIASVFLESFLFYSGFWLPMYFSSRGKLTNTADLIRLIIRDEAVHGYYIGYKYQKNMEKISLGQREELKSFAFDLLLELYDNELQYTDELYAETPWADDVKAFLCYNANKALMNLGYEPLFPAEMAEVNPAILAALSPNADENHDFFSGSGSSYVMGKAVETEDEDWNF | 3.43 ± 1.1 h | 2.03 h | 3.25 ± 0.41 h | 4.27 h | – | 6.6 h | 3.14 ± 0.99 h | – | – | 2.18 ± 0.23 h | 1.85 h | –
7 | MALLPDKEKLLRNFLRCANWEEKYLYIIELGQRLPELRDEDRSPQNSIQGCQSQVWIVMRQNAQGIIELQGDSDAAIVKGLIAVVFILYDQMTPQDIVNFDVRPWFEKMALTQHLTPSRSQGLEAMIRAIRAKAAALS | 4.3 ± 0.53 h | 4.012 ± 0.015 h | 4.57 ± 0.48 h | 9.46 ± 0.25 h | 4.85 ± 0.13 h | 10.1 ± 1.2 h | 3.71 ± 0.31 h | – | 5.07 ± 1.1 h | 3.39 h | 3.509 ± 0.018 h | 5.75 ± 0.11 h
